Laboratory results as given in paper PMC10367113 (Nature chemical biology, 2022).

Legend:
Bl_Endo85 = target: T1, Bl_Endo85 (Bifidobacterium longum, UniProt Q8G4P3); experiment: LC-MS; format: biochemical; details: 150 mM ammonium acetate pH 5.0, 37 °C, 16 h; product GlcMan9GlcNAc
T1 sequence (Q8G4P3 38-937): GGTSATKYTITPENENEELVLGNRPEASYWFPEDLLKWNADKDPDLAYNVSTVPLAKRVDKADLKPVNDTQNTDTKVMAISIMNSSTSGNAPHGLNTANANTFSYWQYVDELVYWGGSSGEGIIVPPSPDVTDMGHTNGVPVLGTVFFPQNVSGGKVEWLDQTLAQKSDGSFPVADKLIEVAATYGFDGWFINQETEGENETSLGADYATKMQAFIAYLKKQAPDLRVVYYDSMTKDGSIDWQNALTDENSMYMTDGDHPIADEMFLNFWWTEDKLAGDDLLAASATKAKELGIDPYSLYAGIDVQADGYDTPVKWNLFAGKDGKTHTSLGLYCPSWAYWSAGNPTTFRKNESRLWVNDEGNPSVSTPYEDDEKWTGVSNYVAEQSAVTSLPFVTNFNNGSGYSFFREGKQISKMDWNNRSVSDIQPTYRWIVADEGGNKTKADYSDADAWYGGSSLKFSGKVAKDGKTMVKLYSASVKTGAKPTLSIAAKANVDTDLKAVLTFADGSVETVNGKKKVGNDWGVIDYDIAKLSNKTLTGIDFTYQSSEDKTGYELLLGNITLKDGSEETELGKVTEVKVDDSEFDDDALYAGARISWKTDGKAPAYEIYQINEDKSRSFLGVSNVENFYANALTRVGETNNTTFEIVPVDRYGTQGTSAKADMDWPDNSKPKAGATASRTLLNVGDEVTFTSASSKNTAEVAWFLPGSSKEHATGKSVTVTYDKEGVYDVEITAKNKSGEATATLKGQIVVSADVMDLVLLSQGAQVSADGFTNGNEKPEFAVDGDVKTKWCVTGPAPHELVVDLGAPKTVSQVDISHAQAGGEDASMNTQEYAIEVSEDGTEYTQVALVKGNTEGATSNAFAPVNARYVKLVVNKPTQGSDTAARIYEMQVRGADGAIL

Bl_Man38B = target: T2, Bl_Man38B (Bifidobacterium longum, UniProt Q8G4Q0); experiment: LC-MS hydrolysis kinetics; format: biochemical; details: pH 5.5, 37 °C, 0.1 mM CoCl2
T2 sequence (Q8G4Q0 1-1046): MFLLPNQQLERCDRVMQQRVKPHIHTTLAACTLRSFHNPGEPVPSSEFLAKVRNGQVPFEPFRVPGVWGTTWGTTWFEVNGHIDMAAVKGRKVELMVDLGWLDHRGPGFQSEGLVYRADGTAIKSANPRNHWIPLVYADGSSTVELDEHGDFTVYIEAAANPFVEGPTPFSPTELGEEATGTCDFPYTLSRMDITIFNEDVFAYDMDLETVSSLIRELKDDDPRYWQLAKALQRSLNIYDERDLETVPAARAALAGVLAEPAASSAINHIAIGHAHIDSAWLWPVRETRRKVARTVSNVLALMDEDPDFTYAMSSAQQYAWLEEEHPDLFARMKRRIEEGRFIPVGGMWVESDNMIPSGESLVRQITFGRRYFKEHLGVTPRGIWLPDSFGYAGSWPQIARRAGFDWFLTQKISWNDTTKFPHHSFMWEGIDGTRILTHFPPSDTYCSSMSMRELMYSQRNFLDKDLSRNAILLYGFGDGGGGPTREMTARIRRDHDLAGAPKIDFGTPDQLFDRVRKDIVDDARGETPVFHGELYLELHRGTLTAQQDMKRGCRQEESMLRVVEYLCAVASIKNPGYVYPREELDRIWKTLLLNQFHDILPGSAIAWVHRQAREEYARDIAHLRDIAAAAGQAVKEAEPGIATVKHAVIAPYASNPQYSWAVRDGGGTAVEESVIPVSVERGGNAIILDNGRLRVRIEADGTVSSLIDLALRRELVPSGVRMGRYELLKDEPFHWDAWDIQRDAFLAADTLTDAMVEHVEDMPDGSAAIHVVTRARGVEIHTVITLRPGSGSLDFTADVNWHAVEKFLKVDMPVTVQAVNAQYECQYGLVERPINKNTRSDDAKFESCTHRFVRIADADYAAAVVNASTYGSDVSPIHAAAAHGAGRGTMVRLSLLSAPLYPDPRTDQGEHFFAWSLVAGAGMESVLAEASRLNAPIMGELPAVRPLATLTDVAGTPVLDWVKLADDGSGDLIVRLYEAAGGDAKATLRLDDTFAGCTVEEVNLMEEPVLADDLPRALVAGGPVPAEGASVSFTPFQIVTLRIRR

cryo-EM structure = target: the molecule itself; experiment: cryo-EM structure

For CC(=O)N[C@H]1[C@H](O[C@H]2[C@H](O)[C@@H](NC(C)=O)C(O)O[C@@H]2CO)O[C@H](CO)[C@@H](O[C@@H]2O[C@H](CO[C@H]3O[C@H](CO[C@H]4O[C@H](CO)[C@@H](O)[C@H](O)[C@@H]4O[C@H]4O[C@H](CO)[C@@H](O)[C@H](O)[C@@H]4O)[C@@H](O)[C@H](O[C@H]4O[C@H](CO)[C@@H](O)[C@H](O)[C@@H]4O[C@H]4O[C@H](CO)[C@@H](O)[C@H](O)[C@@H]4O)[C@@H]3O)[C@@H](O)[C@H](O[C@H]3O[C@H](CO)[C@@H](O)[C@H](O)[C@@H]3O[C@H]3O[C@H](CO)[C@@H](O)[C@H](O)[C@@H]3O[C@H]3O[C@H](CO)[C@@H](O)[C@H](O[C@H]4O[C@H](CO)[C@@H](O)[C@H](O)[C@H]4O)[C@@H]3O)[C@@H]2O)[C@@H]1O (some centres unmarked) [GlcMan9GlcNAc2], the LC-MS (Bl_Endo85) was “Reaction of Bl_Endo85 against GlcMan9GlcNAc2, generating GlcMan9GlcNAc”.

OC[C@H]1O[C@H](O[C@H]2[C@H](O)[C@@H](CO)OC(O)[C@H]2O)[C@@H](O)[C@@H](O)[C@@H]1O (stereo partly drawn) [α-1,3-mannobiose] was tested, and the Km (Bl_Man38B) was “Bl_Man38B was efficient over the three disaccharides”.

B1: Bl_Man38C, GH38 α-mannosidase from Bifidobacterium longum NCC2705 (enzyme)
chain: MLLKVNREIDRCKRVMRERVWPHIHQVLAQCTVGAVKNPGEPEMPAAFITRAVSGQVIFQPLAVGEPWGTSWGTTWIRVEGQLPETLPEGRAIELVFNLGWLEWPVGGHIEAMAYRADGTVIKALHPRNHWMPLVSADGVKDRVVNPDGSFVVYVEGAYNPNVPSFTVTELGTKPTGKADERYEFSSIDIAALDQDMFDYWADLDVVTGSLENMNDADPRYWKLAKAMQRSINLWDEKDYNTLALARKALDKVMHNPANASAMTLTAMGHSHIDSAWLWPVRETERKVGRTVSNALALMDIDPDFTYVMSAAQHFAWLEERHPDLFERVKARIAEGRFIPVGGMWVESDGTMPCGESLIRQISYGKRYFKEKLGVVPNGIWLPDSFGYTGAWPQIAKRSGYSWFLTQKLCWNDTTRLPHHSFMWEGVDGSQIFTHFPPADKYDSDMSANDMAYVQSNYKDKDLSDRGILLFGYGDGGGGPIREMTMREHRFESFEGMPKVEYGTPDDFFSKAETEMKAEAGSEMPRWKGEFYFELHRKTLTSQQEMKRGCRKEESMLRTVEYLGVVASLESADYVYPTERIDRIWKTLLLSQFHDILPGSAIEWAHRVAREEYARDLKALSDIARDAIAAIAVANPDVARIAKARISQFADVDPWRPASLVSCGEPVEVNRREDGSATLDNGLLCVHVAADGTVDSMIDLKSGREMVAKDHVMGRYEILKDEPGVFDAWDVERDAFLCATALADGHIVSIETTADGSAVIVTKNSYRDDEISTTITLRPGKSQLDFHADVEWNVPEKLLKVDIPMALSASRAQYECQYGLIERPIVKNTEGEEAMFESCSHRFVRIHDSSYGIGVANGSTYGSDVSSLRDRDDALAGTMVRMSLVAAPTAPDPRTDIGHHEFDWTVLPCASVAPLVAAAGEINAPTIENMPDIAAPITLEPIEGTPVIDWIKLADDGSGDIVARLYEAAGAKAKAMLHVGGTLDGWTVRETNTLEQDESYPDEPAGLIGGKQQAEGAELALNPFQLTTLRLSRA
In the case of B1, the “stoichiometry N” value (cryo-EM structure) is reported as 4.

B2: Bl_Man38B, GH38 α-mannosidase from Bifidobacterium longum NCC2705 (enzyme)
chain: T2 sequence (Q8G4Q0 1-1046)
With B2 the “stoichiometry N” value (cryo-EM structure) was 4.

B3: Bl_Man38A, GH38 α-mannosidase from Bifidobacterium longum NCC2705 (enzyme)
chain: MFLKPEQQLERCRRIVRQRVDPHIHPSIAQLTVESYDIPGEPMPSDEFFAKLDRGDIDFKPFMLGSEWGTTWGTVWFRLTGTVPAGYPKGKPLELILDLGWYPHSCGGHIEGLVYRADGTAIKAVHPLNYWVPFMDAEGNAQVPVAEDGSFTLYLEAASNPLLLGVPPFIETELGDHATGKPDEPYVFKSADLAEFDERYENYSVDLDVVSSLMEFADKQSPRYWQLAKALQRSLNAYDERNPESVEAARAVLAGVLAKPANASAMNVSAIGHAHIDSAWLWPVRETRRKVARTVSNALALMDADPDFKYAMSSAQQYAWLEEDHPDIFKRMKRRIEEGRFIPVGGMWVEADGMLPAGESLIRQIAYGRKYFKEHLGVEPKGVWLPDSFGYTGAWPQIARRAGYEWFLTQKISWNDTTKFPHHSFMWEGIDGSRIFTHFPPADTYAAWCKVQELDYAEKNFQDKDLSDRSLLLFGFGDGGGGPTRNMMEHLHRYENLEGVSKVSIEEPNDFFDKAHQQLAENAGPEMPVWKGELYLELHRGTLTSQQDMKRGCRQEESLLRTVEYLGAAAVLSDPEYVYPREELDRIWKTLLLNQFHDILPGSAIAWVHREAREDYRRDLKRLAEIAQDMCAVLRKANPQADLLAEARISQFRNDGASWHANRINEPTDALSVLTQTLDNGRVLLANGVLSVTIEADGTISSLLDEEHGRELVPAGTRLGQYELLRDEPAVWDAWEIERESLLMANAVTGSIESVNTENGAAQVHVHTADGDTVITTTITLRPGSHTLDFHADIDWHERERFLKVDLPLGIVADQATYDCQYGLIRRPIVKNTASDEAKYESSTNRFAIIGDAGYAAAVINGSVYGSDASPIAGNAAEGRDSGTMFRLSLLSAPTFPDPRTDIGSHEFDWSVVADATVDRALDAAGVLNAPVLHDVPDITPLASIESVNGTVVLDWMKLADDGSGDLIVRAYEAAGGQADAMLHVCPALAGASVHETNVLEGDDLAADLPVALQDGRQNAEGATLHFGPFQLATLRITR
B3 was tested, and the “stoichiometry N” value (cryo-EM structure) was 4.
